In the nanobody polyreactivity screen of Harvey et al. (2022):

Test: yeast display, Sf9 membrane polyspecificity reagent, FACS + sequencing; frameworks hold sequencing errors
Summary of the method: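 A nanobody's polyreactivity label depends on the gate it was sorted from. Yeast display cells were stained with 10% biotinylated, detergent-solubilized Sf9 membrane reagent for 1 hour at 4 °C, enriched on streptavidin microbeads and sorted by FACS. The low and high (top ~1%) gates were set on anti-HA fluorescence for expression and streptavidin fluorescence for reagent binding.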

Sequence | polyreactivity (PSR sort gate)
QVQLVESGGGLVQAGGSLRLSCAASGSTYYLYAMGWYRQAPGKESEFVARISASGGNTYYADSVKGRFTISRDNAKNTVYLQMNRLIPEDTAVFYCAARVRGRNASDYDYYYWGQGTQVTVSS | high polyreactivity
QVQLVESGGGLVQAGGSLRLSCAASGSTYYNAMGWYIQAPGKERELVAAIRFRSGSTYYADSVKGRFTISRDNAKNTVYLQMNSMKPVDTAVYYCAADNKRSWRYAYNYWGQGTQVTVSS | high polyreactivity
QVQLVESGGGLVQAGGSLRLSCAASGSTYYNTMGWYRQAPGKEREFVAAITWSTGTTYYADSVKGRFTISRDNAKNTVYLQMNSLKPEDTAVYYCATDDSRDWLNYWGQGTQVTVSS | low polyreactivity
QVQLVESGGGLVQAGGSLRLSCAASGSTYYQYVMGWYRQAPGKEMELVAAISGSGGSTYYADSVKGRFTISRDNAKNTVYLQMNSLKPEDTAVYYCAARLRGRGRPPFGYWGQGTQLTVSS | high polyreactivity
QVQLVESGGGLVQAGGSLRLSCAASGSTYYTNAMGWYRQAPGKERELVATITSSGGITSYADSVKGRFTISRDNAKNTVYLQMNSVKPEDTAVYYCAADFGSSYDTHEYGYWGQGTQVTVSS | low polyreactivity
QVQLVESGGGLVQAGGSLRLSCAASGSTYYYNAMGWYRQAPGKERELVARISRSGGSTYADSVKGRFSISRDNAKNTVYLQMNSLKPEDTAVYYCNAYAYGTPEFTSYAVRYDYWGQGTQVTVSS | low polyreactivity
QVQLVESGGGLVQAGGSLRLSCAASGSYFTYNRMGRYRQAPGKEREFVAANTWTGGSTYADSVKGRFTISRDNAKYTVYLQMNSLKPEDTAVYYCAAVRRFSWYTPVTTRRYYYWGQGTQVTVSS | high polyreactivity
QVQLVESGGGLVQAGGSLRLSCAASGTFAFYTMGWYRQAPGKERELVAAISWDGGDTYYADSVKGRFTISRDNAKNTVYLQMNSLKPEDTAVYYCAADYSNSGYGYWGQGTQVTVSS | low polyreactivity
QVQLVESGGGLVQAGGSLRLSCAASGTFAGNAMGCYRQSPGKERELVASITTGGRTYYADSVKGRFTISRDNAKNTVYLQMNSLKPEDTAVFYCSADLIRELEFDYWGQGTQVTVSS | low polyreactivity
QVQLVESGGGLVQAGGSLRLSCAASGTFAIYAMGWYRQAPGKERELVAAIRWRGGRTYYADSVKGRFTISRDNAKNTVYFQMNSLKPEDTAVYYCAAEVPYYWWSPYRVDVGYWGQGTQVTVSS | high polyreactivity
QVQLVESGGGLVQAGGSLRLSCAASGTFDAYAMGWYRQAPGKERELVASISSSGGSTYYADSVKGRFTISRDNAKNTVYLQMNSLKPEDTAVYYCAATDFWYSGYYWGQGTQVTVSS | low polyreactivity
QVQLVESGGGLVQAGGSLRLSCAASGTFDTYSMGWNRQAPGKERELVADISSVGSTYYADSVKWRFTISRDNAKNTVYLQMNSLKPEDTAVYYCAATYPYPYYYIEYYYWGQGTQVTVSS | low polyreactivity
QVQLVESGGGLVQAGGSLRLSCAASGTFGGYAMGWYRQAPGKEREFVAAIDYGGGSTYYADSVKGRFTMSRDNAKNTVYLQMNSLKPEDTAVYYCAAEHWGYTYDQDFSTWATIYEYWGQGTQVTVSS | high polyreactivity
QVQLVESGGGLVQAGGSLRLSCAASGTFKYYAMGWYIQAPGEERELVAAISRGGRTNYADSVKGRFTISRDNAKNTVYLQMTSLKPEDTAVYYCAARKADTVFKFEYWGQGTQVTVSS | high polyreactivity
QVQLVESGGGLVQAGGSLRLSCAASGTFRRYPMGWYRQEPGKERELVAAITSSGGTYYADSVKGRFTISRDNAKHTVYLQMNSLKPEDTALYYCAARDYWSRYFRPGIVGWHDYWGQGTQVTVSS | high polyreactivity
QVQLVESGGGLVQAGGSLRLSCAASGTFVTYMGLYRQAPGKERELVAAIRNGGSTNYADSVKGRFTISRDNAKNTVYLQMNSLKPEDTAVDYFTADYTYWNGWFATRDYWGQGTQVTVSS | low polyreactivity
QVQLVESGGGLVQAGGSLRLSCAASGTFWLYTMGWYRQAPGKERELVAAISLTAGNTYYADSVKGRFTISRDNAKNTVYLQMNSLKPEDTAVYYCAADHYYYTRYEYWGQGTQVTVSS | low polyreactivity
QVQLVESGGGLVQAGGSLRLSCAASGTFYRNAMGWYRQAPGKERELVAAISSGSNTDYADSVKGRFTISRDNAKNTVYLQMNSLKPEDTAVYYCAADSLARRYDYWGQGTQVTVSS | low polyreactivity
QVQLVESGGGLVQAGGSLRLSCAASGTIFASYAMGWYRQAPGKERELVAAISDGGGRTYYADSVKGRFTISRDNAKNTVYLQMNSLKPEDTAVYYCAAYAVYTYRRARGYWGQGTQVTVSS | high polyreactivity
QVQLVESGGGLVQAGGSLRLSCAASGTIFGYYAMGWDREAPGKERELVAAITVSGSRTYYADSVKGRFTISRDKAKNTVYLQMNCLKPEATAVYYCAARYVSRYWAGRYPTRQRDSWGQGTQVTVSS | high polyreactivity
QVQLVESGGGLVQAGGSLRLSCAASGTIFGYYAMGWYRQAPGKERELVAAITSDGDTYYADSVKGRFTISRDNAKNTVYLQMNSLIPEDTAVYYCNATYGGPYYIQYDYWGQGTQVTVSS | low polyreactivity
QVQLVESGGGLVQAGGSLRLSCAASGTIFLVYAMGWYRQAPGKERELVAAITFSGGDTYADSVKGRFTISRDNAKNTVYLQMNSLKPEDTAVYYCNAPWPFYGSVVGQDFDYWGQGTQVTVSS | low polyreactivity
QVQLVESGGGLVQAGGSLRLSCAASGTIFNEYAMGWYRQAPGKERELVAAISTSGDITYYADSVKGRFTISRDNAKNTVYLQMNSLKPEDTAVYYCAAKYSLLRQYNRLDYWGQGTQVTVSS | low polyreactivity
QVQLVESGGGLVQAGGSLRLSCAASGTIFPTYAMGWYRQAPGKERELVAAISSIVGGTYYAHSVKGRFTISRDNAKNTVYLQMNSLKPEVTAVYYCAAPEDKYQHCIYGAYGVDYWGQGTQVTVSS | low polyreactivity
QVQLVESGGGLVQAGGSLRLSCAASGTIFVGYAMGWYRQAPGKERELVAAISWSGGRTYYADSVKGRFTISRDNAKNTVYLQMNSLKPEDTAVYYCAAPRYGGWRSYQKYDYWGQGTQVTVSS | high polyreactivity
QVQLVESGGGLVQAGGSLRLSCAASGTIFVNNAMGWYRQAPGKERELVAAIRRSGGNTYYADSVKGRFTISRDNAKNTVYLQMNSLKPEDTAVYYCNVVRRADSIRAKSRDYWGQGTQVTVSS | high polyreactivity
QVQLVESGGGLVQAGGSLRLSCAASGTILSFNAMAWYRQAPGKERELVAAMSRGGSTNYADSVKGRFTISRDNEKNTVYLQMNCLIPEDTAVYYCAALRPYGKEDVSDGGMDYWGQGTQVTVSS | high polyreactivity
QVQLVESGGGLVQAGGSLRLSCAASGTIYDGYAMGWYRQAPGKERELVAAINTSGGTTYYADSENGRFTISRDKAKNNGYLQMNSLKPEETAVYYCNAHNHLPPYDYWGQGSQVTVSS | low polyreactivity
QVQLVESGGGLVQAGGSLRLSCAASGTMGWYRQAPGKERELVAANSSSDRTSYADSVKGRFTISRDNAKNTVYLQMNSLKPEDTAVYYCNASTVFAWRTSTLKLFYTAHDYWGQGTQVTVSS | low polyreactivity
QVQLVESGGGLVQAGGSLRLSCAASGTTFAGYAMGWYRPEPGKERELVSAISSGDSTNYADSVKGRFTISRDNAKNTVYLQMNSLKPEDTAVYYCNAEYRTRVFWWAASSYDYWGQGTQVTVSS | low polyreactivity
